The values below come from patent US20230218738A1 (Pfizer, published 2023).

Substitutions are numbered along the chain they refer to.

Test in all cases: BLI (Octet), F on anti-HIS tip, 20 nM mAb
Test [1] addresses RSV F protein mutant pXCS854 (RSV A2, UniProt P03420 26-109).
The target in test [2] is RSV F protein mutant pXCS885 (RSV A2, UniProt P03420 26-109).
Test [3] addresses RSV F protein mutant pXCS853 (RSV A2, UniProt P03420 26-109).
Test [4] deals with T1, RSV F protein mutant pXCS880 (RSV A2, UniProt P03420 26-109).
T1 chain 1: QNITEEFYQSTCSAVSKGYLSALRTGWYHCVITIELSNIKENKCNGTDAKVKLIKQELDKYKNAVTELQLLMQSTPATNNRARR
T1 chain 2: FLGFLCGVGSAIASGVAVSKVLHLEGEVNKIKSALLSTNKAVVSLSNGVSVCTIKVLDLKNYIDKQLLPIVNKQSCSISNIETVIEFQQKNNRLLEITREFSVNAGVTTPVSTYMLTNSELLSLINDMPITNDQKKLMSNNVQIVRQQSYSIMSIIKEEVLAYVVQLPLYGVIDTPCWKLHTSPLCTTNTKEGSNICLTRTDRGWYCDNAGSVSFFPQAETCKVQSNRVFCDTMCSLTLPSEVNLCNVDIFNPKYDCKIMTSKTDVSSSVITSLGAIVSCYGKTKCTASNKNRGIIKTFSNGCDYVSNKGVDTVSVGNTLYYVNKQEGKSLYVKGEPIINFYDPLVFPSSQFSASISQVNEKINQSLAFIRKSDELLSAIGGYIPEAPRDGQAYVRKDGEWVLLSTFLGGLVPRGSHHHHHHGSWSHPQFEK

Test [5] has as its target RSV F protein mutant pXCS891 (RSV A2, UniProt P03420 26-109).
In test [6] the target is RSV F protein mutant pXCS889 (RSV A2, UniProt P03420 26-109).
Test [7] addresses T2, RSV F protein mutant pXCS892 (RSV A2, UniProt P03420 26-109).
T2 chain 1: T1 chain 1
T2 chain 2: T1 chain 2 with C6L, V160I, C235N, S350D, Q351E, S353D

The target in test [8] is RSV F protein mutant pXCS857 (RSV A2, UniProt P03420 26-109).
For test [9], the target named is RSV F protein mutant pXCS781 (RSV A2, UniProt P03420 26-109).
Test [10] addresses RSV F protein mutant pXCS884 (RSV A2, UniProt P03420 26-109).
The target of test [11] is T3, RSV F protein mutant pXCS849 (RSV A2, UniProt P03420 26-109).
T3 chain 1: T1 chain 1 with C30S, T78C
T3 chain 2: T1 chain 2 with C6L, I12C, C52L, I54S, V160I, C235N, Q351E, S353D

For test [12], the target named is T4, RSV F protein mutant pXCS888 (RSV A2, UniProt P03420 26-109).
T4 chain 1: T1 chain 1 with C30S, T78C
T4 chain 2: T1 chain 2 with C6L, I12C, C52L, V160I, C235N

B1: AM22 (antibody, V domains shown)
VH: QVQLVQSGAEVKKPGATVKVSCKISGHTLIKLSIHWVRQAPGKGLEWMGGYEGEVDEIFYAQKFQHRLTVIADTATDTVYMELGRLTSDDTAVYFCGTLGVTVTEAGLGIDDYWGQGTLVTVSS
VL: EIVLTQSPGTLSLSPGERATLSCRASQIVSRNHLAWYQQKPGQAPRLLIFGASSRATGIPVRFSGSGSGTDFTLTINGLAPEDFAVYYCLSSDSSIFTFGPGTKVDFK
B1: the “Response (nm shift)” value in test [1] came to 0.453 nm; in test [2], 0.105 nm; in test [3] it was 0.484 nm; in test [4] it was 0.213 nm; in test [5], 0.461 nm; in test [6], 0.477 nm. Moreover, the “Response (nm shift)” value worked out at 0.542 nm in test [7]; 0.563 nm in test [8]; 0.423 nm in test [9]; 0.323 nm in test [10]; 0.43 nm in [11]; 0.434 nm in [12].

B2: MPE8 (antibody, V domains shown)
VH: EVQLVESGGGLVKPGGSLRLSCAASGFTFSSYSMNWVRQAPGKGLEWVSSISASSSYSDYADSAKGRFTISRDNAKTSLFLQMNSLRAEDTAIYFCARARATGYSSITPYFDIWGQGTLVTVSS
VL: QSVVTQTPSVSGAPGQRVTISCTGSSSNIGAGYDVHWYQQLPGTAPKLLIYDNNNRPSGVPDRFSASKSGTSASLAITGLQAEDEADYYCQSYDRNLSGVFGTGTKVTVL
notes: also called MPEG
B2: the “Response (nm shift)” value in [1] is 0.886 nm; in test [2] it was 0.408 nm; in test [3], 0.905 nm; in test [4] it was 0.684 nm; in test [5] it was 0.92 nm; in test [6] it was 0.889 nm. Also, the “Response (nm shift)” value in test [7] was 1.03 nm; in [8], 1.09 nm; in test [9], 0.876 nm; in [10], 0.784 nm; in test [11], 0.908 nm; in [12] it was 0.878 nm.
